How the values were obtained:
[1] = molecular target: T1, cynomolgus monkey PD-L1 on blood T lymphocytes (cynomolgus monkey, UniProt G7PSE7 19-290); assay: receptor occupancy on blood T lymphocytes by flow cytometry, cynomolgus monkeys, up to day 12 after 13 mg/kg IV
T1 construct: also called PD-L1 receptor (cynomolgus T cells)
Method: (§1) Blood (8 mL) for PBMC isolation was collected at least one day prior to dose and 5, 14, 21 and 30-days post-injection. […] All collected blood and serum samples were frozen for subsequent analysis. […] These antibodies came from a different expression system using transfected HEK cells. Blood (8 mL) for PBMC isolation was collected at least one day prior to dose and 5, 14, 21, 30 and 45-days post-injection. […] All collected blood and serum samples were frozen for subsequent analysis.
(§2) One day prior to dosing (baseline), and on 5, 14, 21, and 30-days post treatment, 8 mL of whole blood was collected for Peripheral Blood Mononuclear Cell (PBMC) isolation and cryopreservation. In the second study, whole blood was also collected also at 45-days post treatment. Samples were analyzed for PD-L1 receptor occupancy on blood T lymphocytes and for Immunophenotype of different immune cell subpopulations. The percentage of PD-L1 receptor occupancy on blood T-lymphocytes by the antibody was assessed using the same method as described above for receptor occupancy in mice.

[2] = molecular target: T1, cynomolgus monkey PD-L1 on blood T …; assay: receptor occupancy on blood T lymphocytes by flow cytometry, cynomolgus monkeys, day 20 after 13 mg/kg IV (antibody cleared)
Method: as §1, §2

human PD-L1 [3] = molecular target: T2, human PD-L1 (human, UniProt Q9NZQ7 19-238, limits assumed); assay: SPR
T2 construct: also called hPD-L1; Programmed Death-Ligand 1

cynomolgus monkey PD-L1 = cynomolgus monkey PD-L1 (cynomolgus monkey, UniProt G7PSE7 19-238); assay: SPR
human PD-L1 [4] = molecular target: T2, human PD-L1; assay: SPR, kinetics

T1 sequence (G7PSE7 entry or part of it limits assumed): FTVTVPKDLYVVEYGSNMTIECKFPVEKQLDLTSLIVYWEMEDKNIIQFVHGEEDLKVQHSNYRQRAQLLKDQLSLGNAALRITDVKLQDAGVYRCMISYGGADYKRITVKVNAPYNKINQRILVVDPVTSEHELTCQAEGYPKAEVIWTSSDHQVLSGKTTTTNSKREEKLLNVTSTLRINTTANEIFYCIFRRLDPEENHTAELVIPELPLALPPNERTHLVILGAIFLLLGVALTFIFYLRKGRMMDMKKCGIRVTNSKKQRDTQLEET
T2 sequence (Q9NZQ7 19-238 limits assumed): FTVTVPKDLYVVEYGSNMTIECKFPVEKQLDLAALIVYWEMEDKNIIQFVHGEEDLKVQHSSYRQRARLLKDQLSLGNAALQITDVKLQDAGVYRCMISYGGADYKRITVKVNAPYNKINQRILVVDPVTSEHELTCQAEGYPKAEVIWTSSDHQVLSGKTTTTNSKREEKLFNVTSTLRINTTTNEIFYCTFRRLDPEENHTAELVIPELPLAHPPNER
Chain of cynomolgus monkey PD-L1 (G7PSE7 entry or part of it limits assumed): as the sequence (Q9NZQ7 19-238 limits assumed) above, with A33T, A34S, S62N, R68Q, Q82R, F173L, T185A, T192I, H215L counted along it

| Binder | receptor occupancy [1] [%] | receptor occupancy [2] [%] | Kd (human PD-L1 [3]) [nM] | Kd (cynomolgus monkey PD-L1) [nM] | Kd (human PD-L1 [4]) [nM] |
| --- | --- | --- | --- | --- | --- |
| Variant 1-G09 (Fc effector null) (antibody, human IgG1, kappa, L234A L235A, Human IgG1 with L239A, L240A, K327A; kappa light chain; also called null mutant) heavy: EVQLVESGGGLVQPGRSLRLSCAASGFTFDDYAMHWVRQTPGKGLEWVSGISWKSNIIGYADSVKGRFTISRDNAKNSLYLQMNSLRAEDTALYYCARDITGSGSYGWFDPWGQGTLVTVSSASTKGPSVFPLAPSSKSTSGGTAALGCLVKDYFPEPVTVSWNSGALTSGVHTFPAVLQSSGLYSLSSVVTVPSSSLGTQTYICNVNHKPSNTKVDKRVEPKSCDKTHTCPPCPAPEAAGGPSVFLFPPKPKDTLMISRTPEVTCVVVDVSHEDPEVKFNWYVDGVEVHNAKTKPREEQYNSTYRVVSVLTVLHQDWLNGKEYKCAVSNKALPAPIEKTISKAKGQPREPQVYTLPPSREEMTKNQVSLTCLVKGFYPSDIAVEWESNGQPENNYKTTPPVLDSDGSFFLYSKLTVDKSRWQQGNVFSCSVMHEALHNHYTQKSLSLSPG light: DIQMTQSPSSLSASVGDRVTITCRASQSISSYLNWYQQKPGKAPKPLIYVASSLQSGVPSSFSGSGSGTDFTLTISSLQPEDFATYYCQQSYSNPITFGQGTRLEIKRTVAAPSVFIFPPSDEQLKSGTASVVCLLNNFYPREAKVQWKVDNALQSGNSQESVTEQDSKDSTYSLSSTLTLSKADYEKHKVYACEVTHQGLSSPVTKSFNRGEC | > 80 |  |  |  |  |
| Variant 2-G09 (Fc effector null-H315A) (antibody, human IgG1, kappa, L234A L235A, Human IgG1 with L239A, L240A, K327A and H315A; kappa light chain) heavy: EVQLVESGGGLVQPGRSLRLSCAASGFTFDDYAMHWVRQTPGKGLEWVSGISWKSNIIGYADSVKGRFTISRDNAKNSLYLQMNSLRAEDTALYYCARDITGSGSYGWFDPWGQGTLVTVSSASTKGPSVFPLAPSSKSTSGGTAALGCLVKDYFPEPVTVSWNSGALTSGVHTFPAVLQSSGLYSLSSVVTVPSSSLGTQTYICNVNHKPSNTKVDKRVEPKSCDKTHTCPPCPAPEAAGGPSVFLFPPKPKDTLMISRTPEVTCVVVDVSHEDPEVKFNWYVDGVEVHNAKTKPREEQYNSTYRVVSVLTVLAQDWLNGKEYKCAVSNKALPAPIEKTISKAKGQPREPQVYTLPPSREEMTKNQVSLTCLVKGFYPSDIAVEWESNGQPENNYKTTPPVLDSDGSFFLYSKLTVDKSRWQQGNVFSCSVMHEALHNHYTQKSLSLSPG light: DIQMTQSPSSLSASVGDRVTITCRASQSISSYLNWYQQKPGKAPKPLIYVASSLQSGVPSSFSGSGSGTDFTLTISSLQPEDFATYYCQQSYSNPITFGQGTRLEIKRTVAAPSVFIFPPSDEQLKSGTASVVCLLNNFYPREAKVQWKVDNALQSGNSQESVTEQDSKDSTYSLSSTLTLSKADYEKHKVYACEVTHQGLSSPVTKSFNRGEC | > 80 | < 20 |  |  |  |

The remaining lines, values ahead:

| receptor occupancy [1] [%] | receptor occupancy [2] [%] | Kd (human PD-L1 [3]) [nM] | Kd (cynomolgus monkey PD-L1) [nM] | Kd (human PD-L1 [4]) [nM] | Binder |
| --- | --- | --- | --- | --- | --- |
| > 80 | < 20 |  |  |  | Variant 3-G09 (Fc effector null-H440Q) (antibody, human IgG1, kappa, L234A L235A, Human IgG1 with L239A, L240A, K327A and H440Q; kappa light chain) heavy: EVQLVESGGGLVQPGRSLRLSCAASGFTFDDYAMHWVRQTPGKGLEWVSGISWKSNIIGYADSVKGRFTISRDNAKNSLYLQMNSLRAEDTALYYCARDITGSGSYGWFDPWGQGTLVTVSSASTKGPSVFPLAPSSKSTSGGTAALGCLVKDYFPEPVTVSWNSGALTSGVHTFPAVLQSSGLYSLSSVVTVPSSSLGTQTYICNVNHKPSNTKVDKRVEPKSCDKTHTCPPCPAPEAAGGPSVFLFPPKPKDTLMISRTPEVTCVVVDVSHEDPEVKFNWYVDGVEVHNAKTKPREEQYNSTYRVVSVLTVLHQDWLNGKEYKCAVSNKALPAPIEKTISKAKGQPREPQVYTLPPSREEMTKNQVSLTCLVKGFYPSDIAVEWESNGQPENNYKTTPPVLDSDGSFFLYSKLTVDKSRWQQGNVFSCSVMHEALHNQYTQKSLSLSPG light: DIQMTQSPSSLSASVGDRVTITCRASQSISSYLNWYQQKPGKAPKPLIYVASSLQSGVPSSFSGSGSGTDFTLTISSLQPEDFATYYCQQSYSNPITFGQGTRLEIKRTVAAPSVFIFPPSDEQLKSGTASVVCLLNNFYPREAKVQWKVDNALQSGNSQESVTEQDSKDSTYSLSSTLTLSKADYEKHKVYACEVTHQGLSSPVTKSFNRGEC |
|  | < 20 |  |  |  | Variant 4-G09 (Fc effector null-H315A + H440Q) (antibody, human IgG1, kappa, L234A L235A, Human IgG1 with L239A, L240A, K327A, H315A and H440Q; kappa light chain; also called double mutant) heavy: EVQLVESGGGLVQPGRSLRLSCAASGFTFDDYAMHWVRQTPGKGLEWVSGISWKSNIIGYADSVKGRFTISRDNAKNSLYLQMNSLRAEDTALYYCARDITGSGSYGWFDPWGQGTLVTVSSASTKGPSVFPLAPSSKSTSGGTAALGCLVKDYFPEPVTVSWNSGALTSGVHTFPAVLQSSGLYSLSSVVTVPSSSLGTQTYICNVNHKPSNTKVDKRVEPKSCDKTHTCPPCPAPEAAGGPSVFLFPPKPKDTLMISRTPEVTCVVVDVSHEDPEVKFNWYVDGVEVHNAKTKPREEQYNSTYRVVSVLTVLAQDWLNGKEYKCAVSNKALPAPIEKTISKAKGQPREPQVYTLPPSREEMTKNQVSLTCLVKGFYPSDIAVEWESNGQPENNYKTTPPVLDSDGSFFLYSKLTVDKSRWQQGNVFSCSVMHEALHNQYTQKSLSLSPG light: DIQMTQSPSSLSASVGDRVTITCRASQSISSYLNWYQQKPGKAPKPLIYVASSLQSGVPSSFSGSGSGTDFTLTISSLQPEDFATYYCQQSYSNPITFGQGTRLEIKRTVAAPSVFIFPPSDEQLKSGTASVVCLLNNFYPREAKVQWKVDNALQSGNSQESVTEQDSKDSTYSLSSTLTLSKADYEKHKVYACEVTHQGLSSPVTKSFNRGEC |
|  |  | 0.43 | 0.52 | 0.4 | human anti-PD-L1 monoclonal antibody 84G09 (antibody, V domains shown, also called anti-human PD-L1 antibody (clone 84G09)) VH: EVQLVESGGGLVQPGRSLRLSCAASGFTFDDYAMHWVRQTPGKGLEWVSGISWKSNIIGYADSVKGRFTISRDNAKNSLYLQMNSLRAEDTALYYCARDITGSGSYGWFDPWGQGTLVTVSS VL: DIQMTQSPSSLSASVGDRVTITCRASQSISSYLNWYQQKPGKAPKPLIYVASSLQSGVPSSFSGSGSGTDFTLTISSLQPEDFATYYCQQSYSNPITFGQGTRLEIK |
